In the assay the target is T1, S-tag-ABI2 (full-length ABI2 cloned in pCITE4a, in vitro translated) (UniProt O04719 1-423).
T1 construct: also called S-tagged ABI2; not shown: S-tag encoded by pCITE4a
T1 sequence (looked up): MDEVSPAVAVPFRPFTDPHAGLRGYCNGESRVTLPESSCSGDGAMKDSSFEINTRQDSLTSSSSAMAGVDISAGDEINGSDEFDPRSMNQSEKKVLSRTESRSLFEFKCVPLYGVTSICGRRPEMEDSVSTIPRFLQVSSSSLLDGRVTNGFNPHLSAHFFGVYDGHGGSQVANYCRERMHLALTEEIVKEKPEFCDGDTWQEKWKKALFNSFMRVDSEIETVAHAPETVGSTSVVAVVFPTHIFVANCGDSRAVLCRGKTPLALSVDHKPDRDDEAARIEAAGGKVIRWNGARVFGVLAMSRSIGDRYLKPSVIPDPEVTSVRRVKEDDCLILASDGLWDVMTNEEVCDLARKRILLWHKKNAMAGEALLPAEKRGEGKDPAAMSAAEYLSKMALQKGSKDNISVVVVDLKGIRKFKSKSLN
Kind of assay: in vitro S-tag pull-down of 35S-labeled Snow1. The protocol:
In-vitro pull down assay: In-vitro pull-down assays were conducted to confirm the physical interaction of Snow1 and Ice1. Full-length snow1 cloned in pGEM-T easy and AtMyb79 (cloned in EcoR I and Xho I sites of pBCSK Stratagene) were used. Full-length Ice1 and ABI2 were cloned in EcoRI/SalI and NcoI/EcoRI sites of pCITE4a. 2 μg each of the linearized plasmid were in vitro transcribed using Megascript T7 RNA polymerase kit (Ambion). 10 μg of the purified transcript of snow1 and AtMyb79 were in vitro translated using Flexi Rabbit Reticulocyte system (Promega) in presence of ³⁵S-methionine. S-tag-Ice1 and S-tag-ABI2 transcripts were translated in absence of ³⁵S-methionine and their proteins were purified using S-tag purification kit (Novagen) as per the manufacturer's instructions. S-Tag Ice1 and S-tag ABI2 bound on the S-Tag slurry were used to pull down ³⁵S-labeled proteins. In another experiment ³⁵S-labeled S-tag Ice was produced and was used for pull-down using either GST-Snow1 or GST-Myb79 proteins. Pull-down assays were conducted as described (Haftler et al 2000).

B1: 35S-labeled Snow1 (full-length snow1 in pGEM-T easy, in vitro transcribed and translated) (other)
chain: MGRAPCCEKMGLKRGPWTPEEDQILVSFILNHGHSNWRALPKQAGLLRCGKSCRLRWMNYLKPDIKRGNFTKEEEDAIISLHQILGNRWSAIAAKLPGRTDNEIKNVWHTHLKKRLEDYQPAKPKTSNKKKGTKPKSESVITSSNSTRSESELADSSNPSGESLFSTSPSTSEVSSMTLISHDGYSNEINMDNKPGDISTIDQECVSFETFGADIDESFWKETLYSQDEHNYVSNDLEVAGLVEIQQEFQNLGSANNEMIFDSEMELLVRCIGICE
modifications: 35S-methionine label
As for B1, the binding result is “no binding”.

The record behind these values is patent US20050144671A1 (ARIZONA BD OF REGENTS BEHALF OF UNIV OF ARIZONA, published 2005).
